In PMC10207940, “Characterization of RBD-specific cross-neutralizing antibodies responses against SARS-CoV-2 variants from COVID-19 convalescents” (Frontiers in Immunology, 2023):

B1: antibody 3C11 (antibody, V domains shown)
VH: EVQLVESGGGLVQPGGSLRLSCAASGFAFSTYEMNWVRQAPGKGLEWVSYIHNSGNPVYYADSVKGRFTISRDNAENSLYLQMNSLRAEDTAIYYCARALRYSTSWYDYWGQGTLVTVSS
VL: EIVLTQSPVSLSLSPGERATLSCRASQSVSSYLAWYQQKPGQAPRLFIYDASKRATGIPARFSGSGSGTDFTLTISSLEPEDFAVYYCQQRSNWPRTFGQGTKVEIK
B2: antibody 3G10 (antibody, V domains shown)
VH: EVQLVESGGGLVQPGESLRLSCAASGLTVSSNYMSWVRQAPGKGLEWVSVIYAGGSTFYADSVKGRFTISRDNSKNTLYLQMNSLRAEDMAIYYCARDLSYYGMDVWGQGTTVTVSS
VL: DIQLTQFPFSLSASVGDRVTITCRASQGISTYLAWYQQKPGRAPKLLIYAASTLQSGVPSRFSGSGSGTEFTLTISSLQPEDFATYYCQLLNSYPVHFGQGTKLEIK
B3: antibody 1D7 (antibody, V domains shown)
VH: QVQLVQSGAEVKTPGSSVKVSCKASGGSFSNYAISWVRQAPGQGLEWMGRIIATLGISNYAQKFQGRVTMTADKSTSTAYMELSSLRSEDTAVYYCASPITNFGVLIEVDAFHIWGQGTMVTVSS
VL: EIVLTQSPFTLSLSPGERATLSCGASQSVSSSYLAWYQQKPGLAPRLLIYDGSSRATDIPDRFSGSGSGTDFTLTISRLEPEDFAMYYCQQYSTSPLTFGGGTKVEIK

What was measured:
[1] = biological target: T1, SARS-CoV-2 RBD as crystallised with 3G10 and 3C11 (SARS-CoV-2, prototype (WH-1)); assay: crystal structure; conditions: both partners purified
T1 construct: also called prototype (PT) RBD

[2] = biological target: T2, SARS-CoV-2 RBD (receptor binding domain) with Avi-tag, biotinylated (SARS-CoV-2, WH-1 (Wuhan-Hu-1, MN908947), UniProt P0DTC2); assay: cell-based or functional assay
[3] = biological target: T2, SARS-CoV-2 RBD (receptor binding …); assay: BLI; biotinylated RBD (5 μg/mL in PBST: PBS, 0.02% Tween 20, 0.1% BSA) immobilised on streptavidin biosensors; antibodies 500-7.8125 nM, 120 s association, 300 s dissociation; 1:1 binding model; conditions: both partners purified

Row | Binder | binding result [1] | IC50 of neutralisation of SARS-CoV-2 pseudovirus (WH-1), luciferase read-out on Vero cells [2] | IC50 of neutralisation of authentic SARS-CoV-2 WH-1 virus, CPE-based method on Vero cells [2] | Kd [3]
1 | B1 | binds | < 0.1 µg/mL | 0.028 µg/mL | 5.29 nM
2 | B2 | binds | < 0.1 µg/mL | 0.028 µg/mL | 1.37 nM
3 | B3 | – | < 0.1 µg/mL | 0.009 µg/mL | < 0.001 nM
